The text below walks through data of the Human Domainome abundance scans (Beltran et al. 2025).

To fix the notation:
B1: Myocardin, residues 363 to 406; numbered along this chain, Q8IZQ8 (parent)
chain: KPGPLPPNLDDLKVSELRQQLRIRGLPVSGTKTALMDRLRPFQD

± gives the uncertainty stated by the source.

In this data set the parent is B1. In words: abundance fitness (aPCA) (normalised: wild type 0, dead -1); higher = more abundant; growth selection in yeast, the domain comes from the species named. Conditions: Homo sapiens.
Take KPGPLPPNLDDLKVSELRQQLRIRGLPVSGTTTALMDRLRPFQD [K32T]: the abundance fitness was -0.349 ± 0.083.
For the variant KPGPLPPNLDDLKVSELRQQLRIRGLPVSGTCTALMDRLRPFQD [K32C], the abundance fitness was -0.763 ± 0.16.
The figure for KPGPLPPNLDDLKVSELRQQLRIRGLPVSGTQTALMDRLRPFQD [K32Q] is -0.58 ± 0.11.
The figure for KPGPLPPNLDDLKVSELRQQLRIRGLPVSGTDTALMDRLRPFQD [K32D] is -0.489 ± 0.1; for KPGPLPPNLDDLKVSELRQQLRIRGLPVSGTPTALMDRLRPFQD [K32P] it is -0.583 ± 0.071; for KPGPLPPNLDDLKVSELRQQLRIRGLPVSGTVTALMDRLRPFQD [K32V] it is -0.357 ± 0.09.
As for KPGPLPPNLDDLKVSELRQQLRIRGLPVSGTRTALMDRLRPFQD [K32R], the abundance fitness is -0.012 ± 0.054.
The figure for KPGPLPPNLDDLKVSELRQQLRIRGLPVSGTSTALMDRLRPFQD [K32S] is -0.905 ± 0.11; for KPGPLPPNLDDLKVSELRQQLRIRGLPVSGTITALMDRLRPFQD [K32I] it is -0.488 ± 0.26.
Then KPGPLPPNLDDLKVSELRQQLRIRGLPVSGTLTALMDRLRPFQD [K32L], with -0.784 ± 0.074; and KPGPLPPNLDDLKVSELRQQLRIRGLPVSGTMTALMDRLRPFQD [K32M], with -0.696 ± 0.16; and KPGPLPPNLDDLKVSELRQQLRIRGLPVSGTETALMDRLRPFQD [K32E], with -0.286 ± 0.085.
Then KPGPLPPNLDDLKVSELRQQLRIRGLPVSGTFTALMDRLRPFQD [K32F], with -0.642 ± 0.15.
As for KPGPLPPNLDDLKVSELRQQLRIRGLPVSGTATALMDRLRPFQD [K32A], the abundance fitness was -0.449 ± 0.068.
Take KPGPLPPNLDDLKVSELRQQLRIRGLPVSGTGTALMDRLRPFQD [K32G]: the abundance fitness is -0.856 ± 0.092.
Then KPGPLPPNLDDLKVSELRQQLRIRGLIVSGTKTALMDRLRPFQD [P27I], with -0.374 ± 0.14; and KPGPLPPNLDDLKVSELRQQLRIRGLDVSGTKTALMDRLRPFQD [P27D], with 0.162 ± 0.071; and KPGPLPPNLDDLKVSELRQQLRIRGLSVSGTKTALMDRLRPFQD [P27S], with -0.043 ± 0.076.
The figure for KPGPLPPNLDDLKVSELRQQLRIRGLWVSGTKTALMDRLRPFQD [P27W] is -0.951 ± 0.15; for KPGPLPPNLDDLKVSELRQQLRIRGLLVSGTKTALMDRLRPFQD [P27L] it is -0.657 ± 0.099.
The figure for KPGPLPPNLDDLKVSELRQQLRIRGLYVSGTKTALMDRLRPFQD [P27Y] is -0.891 ± 0.13.
For KPGPLPPNLDDLKVSELRQQLRIRGLAVSGTKTALMDRLRPFQD [P27A], the abundance fitness is -0.376 ± 0.093.
For KPGPLPPNLDDLKVSELRQQLRIRGLVVSGTKTALMDRLRPFQD [P27V], the abundance fitness is -0.73 ± 0.12.
The figure for KPGPLPPNLDDLKVSELRQQLRIRGLTVSGTKTALMDRLRPFQD [P27T] is -0.39 ± 0.17; for KPGPLPPNLDDLKVSELRQQLRIRGLRVSGTKTALMDRLRPFQD [P27R] it is -0.344 ± 0.055; for KPGPLPPNLDDLKVSELRQQLRIRGLGVSGTKTALMDRLRPFQD [P27G] it is -0.41 ± 0.068.
The figure for KPGPLPPNLDDLKVSELRQQLRIRGLEVSGTKTALMDRLRPFQD [P27E] is -0.245 ± 0.087; for KPGPLPPNLDDLKVSELRQQLRIRGLQVSGTKTALMDRLRPFQD [P27Q] it is -0.05 ± 0.094; for KPGPLPPNLDDLKVSELRQQLRIRGLHVSGTKTALMDRLRPFQD [P27H] it is -0.149 ± 0.19.
In the case of KPGPLPPNLDDLKVSELRQQLRIRGLCVSGTKTALMDRLRPFQD [P27C], the abundance fitness is -0.216 ± 0.1.
The figure for KPGPLPPNLDDLKVSELRQQLRIRGLMVSGTKTALMDRLRPFQD [P27M] is -0.324 ± 0.13; for KPGPLPPNLDDLKVSELRQQLRIRGLPVSNTKTALMDRLRPFQD [G30N] it is -0.871 ± 0.48; for KPGPLPPNLDDLKVSELRQQLRIRGLPVSTTKTALMDRLRPFQD [G30T] it is -0.901 ± 0.3.
The figure for KPGPLPPNLDDLKVSELRQQLRIRGLPVSATKTALMDRLRPFQD [G30A] is -0.967 ± 0.14; for KPGPLPPNLDDLKVSELRQQLRIRGLPVSYTKTALMDRLRPFQD [G30Y] it is -0.951 ± 0.14; for KPGPLPPNLDDLKVSELRQQLRIRGLPVSVTKTALMDRLRPFQD [G30V] it is -0.894 ± 0.096.
Then KPGPLPPNLDDLKVSELRQQLRIRGLPVSLTKTALMDRLRPFQD [G30L], with -0.879 ± 0.12.
In the case of KPGPLPPNLDDLKVSELRQQLRIRGLPVSRTKTALMDRLRPFQD [G30R], the abundance fitness is -0.876 ± 0.12.
The figure for KPGPLPPNLDDLKVSELRQQLRIRGLPVSCTKTALMDRLRPFQD [G30C] is -0.709 ± 0.17; for KPGPLPPNLDDLKVSELRQQLRIRGLPVSDTKTALMDRLRPFQD [G30D] it is -0.504 ± 0.13; for KPGPLPPNLDDLKVSELRQQLRIRGLPVSSTKTALMDRLRPFQD [G30S] it is -0.779 ± 0.1.
Then KPGPLPPNLDDLKVSELRQQLRIRGLPVSETKTALMDRLRPFQD [G30E], with -0.607 ± 0.11; and KPGPLPPNLDDLKVSELRQQLRIRGLPVSGTKFALMDRLRPFQD [T33F], with -0.144 ± 0.16.
The figure for KPGPLPPNLDDLKVSELRQQLRIRGLPVSGTKDALMDRLRPFQD [T33D] is 0.138 ± 0.1.
Consider KPGPLPPNLDDLKVSELRQQLRIRGLPVSGTKAALMDRLRPFQD [T33A], for which the abundance fitness worked out at 0.077 ± 0.064.
The figure for KPGPLPPNLDDLKVSELRQQLRIRGLPVSGTKMALMDRLRPFQD [T33M] is -0.402 ± 0.14; for KPGPLPPNLDDLKVSELRQQLRIRGLPVSGTKPALMDRLRPFQD [T33P] it is -0.17 ± 0.087.
The figure for KPGPLPPNLDDLKVSELRQQLRIRGLPVSGTKQALMDRLRPFQD [T33Q] is -0.385 ± 0.21; for KPGPLPPNLDDLKVSELRQQLRIRGLPVSGTKLALMDRLRPFQD [T33L] it is -0.19 ± 0.079; for KPGPLPPNLDDLKVSELRQQLRIRGLPVSGTKCALMDRLRPFQD [T33C] it is -0.072 ± 0.1.
With KPGPLPPNLDDLKVSELRQQLRIRGLPVSGTKKALMDRLRPFQD [T33K], the abundance fitness was found to be 0.016 ± 0.14.
The figure for KPGPLPPNLDDLKVSELRQQLRIRGLPVSGTKSALMDRLRPFQD [T33S] is -0.071 ± 0.095.
Turning to KPGPLPPNLDDLKVSELRQQLRIRGLPVSGTKEALMDRLRPFQD [T33E], the abundance fitness is 0.292 ± 0.078.
Then KPGPLPPNLDDLKVSELRQQLRIRGLPVSGTKWALMDRLRPFQD [T33W], with -0.467 ± 0.099.
Then KPGPLPPNLDDLKVSELRQQLRIRGLPVSGTKRALMDRLRPFQD [T33R], with -0.055 ± 0.059.
The figure for KPGPLPPNLDDLKVSELRQQLRIRGLPVSGTKIALMDRLRPFQD [T33I] is 0.085 ± 0.14; for KPGPLPPNLDDLKVSELRQQLRIRGLPVSGTKVALMDRLRPFQD [T33V] it is 0.016 ± 0.063; for KPGPLPPNLDDLKVSELRQQLRIRGLPVSGTKNALMDRLRPFQD [T33N] it is -0.001 ± 0.08.
